Laboratory results: patent publication US12012457 (SYNTHEKINE, dated 2024)
Residue numbers refer to the chain shown, from its start.

T1: extracellular domain of human IL23R (hIL23R ECD) (human, UniProt Q5VWK5 24-355)
T1 construct: also called hIL-23 ECD antigen
T1 sequence: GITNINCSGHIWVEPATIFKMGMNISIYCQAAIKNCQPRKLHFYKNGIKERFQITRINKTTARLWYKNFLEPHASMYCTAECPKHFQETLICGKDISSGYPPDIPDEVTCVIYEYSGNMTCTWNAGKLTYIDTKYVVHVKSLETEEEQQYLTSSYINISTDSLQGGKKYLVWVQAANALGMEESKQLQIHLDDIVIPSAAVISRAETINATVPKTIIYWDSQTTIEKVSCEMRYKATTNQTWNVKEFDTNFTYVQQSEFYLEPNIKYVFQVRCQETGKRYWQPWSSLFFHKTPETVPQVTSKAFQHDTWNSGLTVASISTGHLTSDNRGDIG

T2: extracellular domain of mouse IL23R (mIL23R ECD) (mouse, UniProt Q8K4B4 24-374)
T2 construct: also called mIL-23 ECD antigen
T2 sequence: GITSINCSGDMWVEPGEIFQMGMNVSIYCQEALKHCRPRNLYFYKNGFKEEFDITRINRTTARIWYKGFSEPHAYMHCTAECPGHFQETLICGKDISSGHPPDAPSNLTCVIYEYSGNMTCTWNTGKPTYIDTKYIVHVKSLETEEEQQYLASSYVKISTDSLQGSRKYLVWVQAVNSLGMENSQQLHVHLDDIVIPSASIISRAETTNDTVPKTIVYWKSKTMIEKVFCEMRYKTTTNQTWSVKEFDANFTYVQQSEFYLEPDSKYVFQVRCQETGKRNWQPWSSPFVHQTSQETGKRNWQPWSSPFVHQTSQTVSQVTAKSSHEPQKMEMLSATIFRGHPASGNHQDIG

B1: hIL23R VHH1 (VHH)
VHH: QVQLQESGGGSVQAGGSLRLSCAASGYTYCSYDMSWYRQAPGKKREFVSAFNSDGTTSYADSVKGRFTISQDKAKNTVYLQMNSLKPEDTAMYYCKTDPHVQSSGGYCPPYWGQGTQVTVSS
B2: mIL23R VHH3 (VHH)
VHH: QVQLQESGGGSVQAGGSLRLSCTASVNTYCEYNMSWYRQAPGKEREFVSGVDSDGSTRYSESVKGRFTISQDNAKNTMYLQMNGLKPEDTAMYYCKTYVCTFCSGNSCYYEYKYYYEGQGTQVTVSS
B3: mIL23R VHH29 (VHH)
VHH: QVQLQESGGGLVQPGGSLRLSCAASGFTFSTSAMTWVRQAPGKGLDWVSGIDSGGTTVYADSVKGRFTISKDNAKNTLYLQMNSLKTEDTAVYYCATGLPWGNTWRTRGQGTQVTVSS
B4: mIL23R VHH39 (VHH)
VHH: B3 VHH with T31R, K71R, N73S, S84G, T97I
B5: mIL23R VHH41 (VHH)
VHH: B3 VHH with S21T
B6: mIL23R VHH33 (VHH)
VHH: B3 VHH with A23T, A24T, T31S, R108T
B7: mIL23R VHH7 (VHH)
VHH: B3 VHH with T31R, K71R, N73S, T97I
B8: mIL23R VHH32 (VHH)
VHH: B3 VHH with Q13R, T31R, K71R, N73S, T97I
B9: mIL23R VHH14 (VHH)
VHH: B3 VHH with S30R, K71R, N73S, T97M
B10: mIL23R VHH20 (VHH)
VHH: B3 VHH with T31S, F67A, S70L
B11: mIL23R VHH35 (VHH)
VHH: B3 VHH with S21A, A23S, T31S, F67A, S70L
B12: mIL23R VHH38 (VHH)
VHH: B3 VHH with T104I
B13: mIL23R VHH21 (VHH)
VHH: B3 VHH with A24T, T31S, R108T
B14: mIL23R VHH37 (VHH)
VHH: B3 VHH with A24T, T31S, S32G, R108T
B15: mIL23R VHH18 (VHH)
VHH: QVQLQESGGGLVQPGGSLRLSCAASGFTFRLTAMRWVRQAPGKGLEWVSGIDSRGSTIYADSVKGRFTISKDNAKNTLYLQLNSLKTEDTAMYYCAQGVYGDTYSGSQGTQVTVSS
B16: mIL23R VHH9 (VHH)
VHH: B15 VHH with A24T, L45V, R54A, L82M
B17: mIL23R VHH40 (VHH)
VHH: B15 VHH with T87S
B18: mIL23R VHH45 (VHH)
VHH: B15 VHH with T32S, K64E
B19: mIL23R VHH13 (VHH)
VHH: B15 VHH with A24T, T32A
B20: mIL23R VHH19 (VHH)
VHH: B15 VHH with T32S
B21: mIL23R VHH31 (VHH)
VHH: B15 VHH with K71R
B22: mIL23R VHH44 (VHH)
VHH: B15 VHH with T32S, L45F
B23: mIL23R VHH30 (VHH)
VHH: B15 VHH with Q108L
B24: mIL23R VHH34 (VHH)
VHH: B15 VHH with Y104H
B25: mIL23R VHH28 (VHH)
VHH: B15 VHH with K71R, T90A
B26: mIL23R VHH23 (VHH)
VHH: B15 VHH with T28N, T32Y, L45V, R54G
B27: mIL23R VHH42 (VHH)
VHH: B15 VHH with R30S, L31N, T32Y
B28: mIL23R VHH2 (VHH)
VHH: B15 VHH with L11S, P14A, R19T, A23T, S25P, T32A
B29: mIL23R VHH46 (VHH)
VHH: B15 VHH with T32S, N73D
B30: mIL23R VHH17 (VHH)
VHH: B15 VHH with L11S, P14A
B31: mIL23R VHH12 (VHH)
VHH: QVQLQESGGGSVQAGGSLRLSCAASGYTYSSCTMGWYRQAPGKERELVSMLISDGSTFYADSVKGRFTFSQENAKNTVYLQMNSLKPEDTAMYYCGCATLGSRTVWGQGTQVTVSS
B32: mIL23R VHH16 (VHH)
VHH: B31 VHH with Y27D, E46D, I52M, S53G, S84N, V105I
B33: mIL23R VHH15 (VHH)
VHH: B31 VHH with L51V, I52F, V105I
B34: mIL23R VHH11 (VHH)
VHH: B31 VHH with N76S
B35: mIL23R VHH36 (VHH)
VHH: B31 VHH with Y27D, E46D, L51V, I52F, V105I
B36: mIL23R VHH10 (VHH)
VHH: B31 VHH with Y27D, E46D, I52M, S53G, V105I
B37: mIL23R VHH25 (VHH)
VHH: B31 VHH with Y94F
B38: mIL23R VHH1 (VHH)
VHH: B31 VHH with N73Y
B39: mIL23R VHH8 (VHH)
VHH: B31 VHH with A23T, G26R, L51V, I52F, V105I
B40: mIL23R VHH27 (VHH)
VHH: B31 VHH with F69S
B41: mIL23R VHH26 (VHH)
VHH: QVQLQESGGGSVQAGGSLRLSCAASGYTFCMAWFRQAPGKEREGVARFYTRDGYTYYSDSVKGRFTISQNNAKNTLYLQMNSLKSEDTAMYYCAADLTRCSSNKNDFRYWGQGTQVTVSS
B42: mIL23R VHH43 (VHH)
VHH: B41 VHH with N70D
B43: mIL23R VHH5 (VHH)
VHH: B41 VHH with T98A
B44: mIL23R VHH24 (VHH)
VHH: B41 VHH with A24V, D59G
B45: mIL23R VHH22 (VHH)
VHH: B41 VHH with G53S
B46: mIL23R VHH6 (VHH)
VHH: QVQLQESGGGSVQAGGSLRLSCAASGYTSGNYWMGWFRQAPGKEREGVATLWTGGASTFYGDSVKGRFTISRDNFKNTLYLQMNSLKVEDTAMYYCAADPALRLGANILRPAEYKYWGQGTQVTVSS
B47: mIL23R VHH4 (VHH)
VHH: QVQLQESGGGSVQAGGSLRLSCAASGYTYSNNCMGWFRQAPGKDRERIANIYTGGGRTTYADSVKGRFTISQDSAKSTVYLQMNSLKPEDTAMYYCAAGSCGSARSEYSYWGQGTQVTVSS

target: T1, extracellular domain of human IL23R …; experiment: periplasmic extract ELISA (PE-ELISA), 96-well plate, colorimetric

| binding result | Binder |
| --- | --- |
| binds | B1 |

target: T2, extracellular domain of mouse IL23R …; experiment: as above

| binding result | Binder |
| --- | --- |
| binds | B2 |
| binds | B3 |
| binds | B4 |
| binds | B5 |
| binds | B6 |
| binds | B7 |
| binds | B8 |
| binds | B9 |
| binds | B10 |
| binds | B11 |
| binds | B12 |
| binds | B13 |
| binds | B14 |
| binds | B15 |
| binds | B16 |
| binds | B17 |
| binds | B18 |
| binds | B19 |
| binds | B20 |
| binds | B21 |
| binds | B22 |
| binds | B23 |
| binds | B24 |

| binding result | Binder |
| --- | --- |
| binds | B25 |
| binds | B26 |
| binds | B27 |
| binds | B28 |
| binds | B29 |
| binds | B30 |
| binds | B31 |
| binds | B32 |
| binds | B33 |
| binds | B34 |
| binds | B35 |
| binds | B36 |
| binds | B37 |
| binds | B38 |
| binds | B39 |
| binds | B40 |
| binds | B41 |
| binds | B42 |
| binds | B43 |
| binds | B44 |
| binds | B45 |
| binds | B46 |
| binds | B47 |
